Where “and” joins values, the source holds several entries; their conditions need not be identical. Equal entries are not always repeated.
Biological target: Gab2 503-524 (Homo sapiens), Q9UQC2
Sequence (Q9UQC2 503-524): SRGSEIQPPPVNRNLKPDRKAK

Kd: 100 µM and 22 µM
B1: Grb2 C-SH3, P62993 (protein)
chain: QQPTYVQALFDFDPQEDGELGFRRGDFIHVMDNSDPNWWKGACHGQTGMFPRNYVTPVNR

Reference: article PMC7695167, “Targeting the Interaction between the SH3 Domain of Grb2 and Gab2” (Cells, 2020)
